Results taken from paper PMC1952068.
Values joined by “and” are separate entries in the source; they are usually repeats but may differ in a detail not shown here. Identical values can stand only once.

Columns and labels:
Experiment in all cases: fluorescence polarization
Conditions in all cases: 10 mM Tris-HCl pH 7.5, 50 mM NaCl, no Mg2+, room temperature; FP: 1 nM duplex, 0.1 mg/mL BSA, 20 min; EMSA: 250 nM enzyme, 15 min, 6% gel
R.Eco29kI Y49A = system: R.Eco29kI Y49A
R.Eco29kI R86A = system: R.Eco29kI R86A
R.Eco29kI wt = system: R.Eco29kI wt

With “TTTTGGTACCGCGGCCGCAAGCTT (double strand) [24-bp duplex with Eco29kI site]” the Kd (R.Eco29kI Y49A) was 49 nM and 529 nM^n, the Kd (R.Eco29kI R86A) was 21 nM and 344 nM^n and the Kd (R.Eco29kI wt) was 16 nM and 299 nM^n.
